Biological target: Cysless ATL1_(cyto)-K400C (human) (UniProt Q8WXF7)
Assay: single-molecule photobleaching step counting (TIRF); LD655-labelled, biotinylated ATL1cyto-K mixed at ~2 μM with 1 mM GTPγS or GDP/AlF4-, diluted and immobilised (~0.3 nM) in a streptavidin-coated microfluidic chamber

- stoichiometry N: 2
Substance: Cysless ATL1_(cyto)-K400C (from UniProt Q8WXF7 1-447) (domain or fragment)

From publication PMC10954664
